In this test the target is endogenous murine MerTK on bone marrow-derived macrophages (mouse) (UniProt Q60805). Kind of test: FACS, mouse BMDM, WT minus MerTK KO. For orientation: In flow cytometry, cells or beads pass a laser one at a time.
Sequence of endogenous murine MerTK on bone marrow-derived macrophages (mouse) (Q60805 19-994): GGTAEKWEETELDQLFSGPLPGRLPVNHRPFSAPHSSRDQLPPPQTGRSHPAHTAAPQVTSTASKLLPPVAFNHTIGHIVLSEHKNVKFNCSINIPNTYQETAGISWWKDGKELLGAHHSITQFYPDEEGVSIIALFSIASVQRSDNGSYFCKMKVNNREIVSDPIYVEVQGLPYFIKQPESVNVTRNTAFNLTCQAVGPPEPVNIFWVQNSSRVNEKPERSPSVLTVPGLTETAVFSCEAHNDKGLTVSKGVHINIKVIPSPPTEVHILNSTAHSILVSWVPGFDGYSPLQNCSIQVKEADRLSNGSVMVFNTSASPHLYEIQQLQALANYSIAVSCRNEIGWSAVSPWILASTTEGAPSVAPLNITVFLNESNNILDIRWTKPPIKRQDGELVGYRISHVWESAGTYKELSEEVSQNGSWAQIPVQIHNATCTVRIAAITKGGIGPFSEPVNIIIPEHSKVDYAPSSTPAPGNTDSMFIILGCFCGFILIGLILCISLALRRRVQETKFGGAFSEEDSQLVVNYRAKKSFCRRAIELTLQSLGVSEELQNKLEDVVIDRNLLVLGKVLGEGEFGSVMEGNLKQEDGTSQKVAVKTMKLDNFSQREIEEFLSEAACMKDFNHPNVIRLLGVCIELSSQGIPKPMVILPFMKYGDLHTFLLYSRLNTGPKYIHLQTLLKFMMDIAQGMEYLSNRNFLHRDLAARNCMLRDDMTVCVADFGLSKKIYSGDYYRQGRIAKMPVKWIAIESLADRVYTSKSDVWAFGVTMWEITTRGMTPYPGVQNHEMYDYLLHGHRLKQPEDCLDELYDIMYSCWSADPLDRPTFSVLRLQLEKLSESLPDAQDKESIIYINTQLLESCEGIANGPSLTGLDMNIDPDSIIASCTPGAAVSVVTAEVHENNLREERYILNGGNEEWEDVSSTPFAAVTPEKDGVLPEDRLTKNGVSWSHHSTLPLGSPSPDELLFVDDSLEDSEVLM

B1: MTK-208 (antibody, human IgG1, V domains shown)
VH: QVQLQQPGAELVVPGASVRLSCKASGYTFINYWMHWVKQRPGQGLEWIGEIDPSDSYANYNQKFKDKSTLSLDKSSSTAYMQLSSLTSEDSAVYYCARCDYYGRLDYWGQGTTLTVSS
VL: QVVLTQSPAIMSASPGEKVTITCSASSSVSYMLWFQQKPGTSPKLWIYSTSNLASGVPARFSGSGSGTSYSLTISRLEAEDAATYYCQQRSSYPPITFGAGTKLELK
The molecule B1 gave an MFI of 1170 MFI.

B2: MTK-201 (antibody, human IgG1, V domains shown)
VH: QVQLRQSGPGLVQPSQSLSITCTVSGFSLSNYGLHWVRQSPGKGLEWLGVIWSGGITDYNAAFISRLSIIKDNSRSQVFFKMNSLQADDTAIYYCARKGHDPYAMDFWGQGTSVTVSS
VL: QIVLTQSPPIMSAFLGERVTMTCTASSSVSSSYLHWYRQMPGSSPKLWIYDTSNLASGVPARFSGSGSGTSYSLTISSMEAEDAATYYCHQYHHSPYTFGGGTKLEIK
In turn, B2 came in with an MFI of 1030 MFI.

B3: MTK-217 (antibody, human IgG1, V domains shown)
VH: QVQLQQPGTEVVKPGASVKMSCRASGYTFTSYWITWVKQRPGQGLEWIGDIHPGSGINNYNEKFRSKATLTVDTSSSTVYMELSSLTSEDSAVYYCAKGGYYGSSYYVMDYWGQGTSVTVSS
VL: DILLTQSPAILSVSPGERVSFSCRASQTIGTSIHWYQQRTNDSPRLLIKYASESISGIPSRFSGSGSGTDFTLSINSVESEDIADYYCQQSNDWPYTFGGGTKLEIK
Take B3: the MFI came to 1130 MFI.

B4: MTK-221 (antibody, human IgG1, V domains shown)
VH: QVTLKESGPGMLQSSQTLSLTCSFSGFSLSTSGMGVSWIRQPSGKGLEWLAHIYWDDDKRYNTSLQSRLTISKDTSRNQVFLKITSVDTADTATYFCGRLGAYSAFPYYFDYWGQGTTLTVSS
VL: DIQMTQSPSSLSASLGGKVTITCKASQDIHKHIAWYQHKPGKGPRLLIHYTSTLQPGIPSRFSGSGSGRDYSFSISNLEPEDLATYYCLQYDNLWTFGGGTKLEIK
Turning to B4, the MFI stood at 993 MFI.

B5: MTK-210 (antibody, human IgG1, V domains shown)
VH: QVQLQQSGPELVKPGASVKISCKASDYEFSRSWMNWVKQRPGKGLEWIGRIYPGDGDTNYNGKFKGKATLTADKSSNTAYMQLNSLTSEDSAVYFCARKGGYYYSISNYFDYWGQGTTLTVSS
VL: QIVLTQSPAIMSASPGVKVTMTCSASSSVSYMHWYQQKPGSSPRLLIYDTSNLASGVPVRFSGSGSGTSYSLTISRMEAEDAATYYCQQWSSYPPYTFGGGTKLEIK
On to B5, for which the MFI came to 1270 MFI.
